Data from article PMC12360457 (Nature, 2025).

Molecular target: the molecule itself
Experiment: cryo-EM structure

B1: Hailong protein A (HalA) from Rhodobacteraceae bacterium QY30, purified as the detergent-solubilized HalA–ODA complex (natural protein)
chain: DTNAVKEPEPALPSAASRGRRTKNWWEPMFDANAPASFSVSDWNFSNNRGPRCTLFLAEKMPDATTLVVKDIDFQDCDFQGTFERKIVFKDCKFTRCDFGLSTFSRTKFSGCSFYASSFTQCTLENCEFRNCKYEKIFYSGNETQIPRTLIAEPYQFLFGACATVDSVPQGKSRFEQRARFEETRSTIARALLANLHSEGSEDTYYAAVKASTLSENRARIARALIKINSSASKGKSIISRAVSFLTGFASAISAVVGMLILLVMGSLNGWGSSISRAMLVGVVAISCVAYRYHYRFNLPPEDAMVKATEIFFLFGYTNYAKMGQEDFHLVFSNALLGLFWYAIAIPTISNRLTRARG
  binding result: binds
